Test results taken from patent US20230250154A1 (CYTONICS, published 2023).

T1: MMP2 (human, UniProt P08253 110-660, limits assumed)
T1 sequence (looked up): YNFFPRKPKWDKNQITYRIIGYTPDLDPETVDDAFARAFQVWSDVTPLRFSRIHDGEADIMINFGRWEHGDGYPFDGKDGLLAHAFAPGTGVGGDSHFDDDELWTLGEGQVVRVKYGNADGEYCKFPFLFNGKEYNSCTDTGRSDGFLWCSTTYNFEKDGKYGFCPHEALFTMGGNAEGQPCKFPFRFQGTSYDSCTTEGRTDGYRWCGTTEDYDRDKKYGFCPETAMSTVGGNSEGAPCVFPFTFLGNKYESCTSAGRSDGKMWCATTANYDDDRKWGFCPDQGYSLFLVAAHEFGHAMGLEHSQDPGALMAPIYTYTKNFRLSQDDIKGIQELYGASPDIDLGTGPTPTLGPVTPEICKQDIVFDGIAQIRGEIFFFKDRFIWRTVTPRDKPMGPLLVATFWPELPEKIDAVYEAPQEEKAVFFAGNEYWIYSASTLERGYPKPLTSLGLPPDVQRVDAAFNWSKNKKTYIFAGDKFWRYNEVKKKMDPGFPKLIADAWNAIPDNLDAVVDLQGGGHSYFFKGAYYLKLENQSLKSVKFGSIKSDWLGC

T2: ADAMTS5 (human, UniProt Q9UNA0 262-622, limits assumed)
T2 sequence (looked up): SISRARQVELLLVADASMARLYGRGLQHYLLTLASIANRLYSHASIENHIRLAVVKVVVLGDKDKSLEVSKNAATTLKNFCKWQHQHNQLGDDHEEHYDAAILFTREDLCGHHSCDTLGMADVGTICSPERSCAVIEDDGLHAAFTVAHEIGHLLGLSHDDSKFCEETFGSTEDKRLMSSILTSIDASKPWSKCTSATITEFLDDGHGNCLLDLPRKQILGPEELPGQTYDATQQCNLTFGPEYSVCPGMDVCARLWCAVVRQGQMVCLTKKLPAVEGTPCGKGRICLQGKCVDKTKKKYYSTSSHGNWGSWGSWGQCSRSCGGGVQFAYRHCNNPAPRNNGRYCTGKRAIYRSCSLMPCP

T3: MMP1 (human, UniProt P03956 100-469, limits assumed)
T3 sequence (looked up): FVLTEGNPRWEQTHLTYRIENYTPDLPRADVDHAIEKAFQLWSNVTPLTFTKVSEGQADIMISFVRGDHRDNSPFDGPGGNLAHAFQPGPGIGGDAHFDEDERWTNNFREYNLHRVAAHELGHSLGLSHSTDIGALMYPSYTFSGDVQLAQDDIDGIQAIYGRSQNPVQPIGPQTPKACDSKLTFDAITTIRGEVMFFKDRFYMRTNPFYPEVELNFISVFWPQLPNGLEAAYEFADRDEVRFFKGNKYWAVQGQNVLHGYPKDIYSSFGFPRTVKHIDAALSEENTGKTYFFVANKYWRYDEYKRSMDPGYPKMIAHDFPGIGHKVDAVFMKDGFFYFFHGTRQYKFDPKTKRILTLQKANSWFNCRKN

T4: ADAMTS4 (human, UniProt O75173 213-685, limits assumed)
T4 sequence (looked up): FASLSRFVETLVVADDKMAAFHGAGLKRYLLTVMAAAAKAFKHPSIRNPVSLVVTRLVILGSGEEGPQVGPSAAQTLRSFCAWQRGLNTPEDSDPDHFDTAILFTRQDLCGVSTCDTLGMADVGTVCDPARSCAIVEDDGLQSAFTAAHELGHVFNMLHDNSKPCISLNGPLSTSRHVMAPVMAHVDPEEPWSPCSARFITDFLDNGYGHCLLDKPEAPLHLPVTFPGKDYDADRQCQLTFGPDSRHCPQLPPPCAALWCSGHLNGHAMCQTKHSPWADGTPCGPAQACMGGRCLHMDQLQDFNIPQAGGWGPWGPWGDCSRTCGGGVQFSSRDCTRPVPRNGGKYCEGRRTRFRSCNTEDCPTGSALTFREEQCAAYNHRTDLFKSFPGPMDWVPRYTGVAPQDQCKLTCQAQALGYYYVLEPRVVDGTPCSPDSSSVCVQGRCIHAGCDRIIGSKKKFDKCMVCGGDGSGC

T5: Cathepsin G (UniProt P08311 21-244)
T5 sequence (looked up): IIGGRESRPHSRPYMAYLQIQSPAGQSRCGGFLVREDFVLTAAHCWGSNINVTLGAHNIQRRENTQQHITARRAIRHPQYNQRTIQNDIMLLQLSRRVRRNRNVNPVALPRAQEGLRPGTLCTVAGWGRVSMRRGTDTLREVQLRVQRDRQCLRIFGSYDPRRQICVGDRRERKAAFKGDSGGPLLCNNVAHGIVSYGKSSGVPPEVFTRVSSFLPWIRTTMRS


Key:
Experiment in all cases: cell-based or functional assay
MMP12 = MMP12 (human, UniProt P39900 106-470, limits assumed)
MMP3 = MMP3 (human, UniProt P08254 100-477, limits assumed)
MMP8 = MMP8 (human, UniProt P22894 101-467, limits assumed)
MMP2 = target: T1, MMP2
ADAMTS5 = target: T2, ADAMTS5
MMP1 = target: T3, MMP1
MMP9 = MMP9 (human, UniProt P14780 107-707, limits assumed)
ADAMTS4 = target: T4, ADAMTS4
MMP13 = MMP13 (human, UniProt P45452 104-471, limits assumed)
Elastase = target: Elastase
chymotrypsin = target: chymotrypsin
bovine trypsin = bovine trypsin (bovine, UniProt P00760 24-246)
Cathepsin G = target: T5, Cathepsin G

MMP3, sequence (P08254 100-477 limits assumed): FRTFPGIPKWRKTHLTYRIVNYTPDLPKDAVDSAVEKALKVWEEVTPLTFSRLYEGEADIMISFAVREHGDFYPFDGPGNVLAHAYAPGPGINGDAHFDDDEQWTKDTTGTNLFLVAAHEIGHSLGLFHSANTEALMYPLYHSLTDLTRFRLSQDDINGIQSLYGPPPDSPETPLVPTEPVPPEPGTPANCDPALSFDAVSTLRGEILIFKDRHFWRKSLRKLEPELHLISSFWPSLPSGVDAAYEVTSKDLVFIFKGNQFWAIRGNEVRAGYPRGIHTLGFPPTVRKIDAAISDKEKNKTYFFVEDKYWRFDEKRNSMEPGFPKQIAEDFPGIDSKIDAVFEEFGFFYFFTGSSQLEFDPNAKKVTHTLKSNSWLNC
bovine trypsin, sequence (P00760 24-246): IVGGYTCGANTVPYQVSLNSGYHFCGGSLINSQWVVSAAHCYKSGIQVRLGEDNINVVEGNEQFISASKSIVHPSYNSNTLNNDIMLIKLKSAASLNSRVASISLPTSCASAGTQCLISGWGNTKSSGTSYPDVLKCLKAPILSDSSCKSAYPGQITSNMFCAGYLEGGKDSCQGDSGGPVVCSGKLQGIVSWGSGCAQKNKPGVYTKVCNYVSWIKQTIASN
MMP8, sequence (P22894 101-467 limits assumed): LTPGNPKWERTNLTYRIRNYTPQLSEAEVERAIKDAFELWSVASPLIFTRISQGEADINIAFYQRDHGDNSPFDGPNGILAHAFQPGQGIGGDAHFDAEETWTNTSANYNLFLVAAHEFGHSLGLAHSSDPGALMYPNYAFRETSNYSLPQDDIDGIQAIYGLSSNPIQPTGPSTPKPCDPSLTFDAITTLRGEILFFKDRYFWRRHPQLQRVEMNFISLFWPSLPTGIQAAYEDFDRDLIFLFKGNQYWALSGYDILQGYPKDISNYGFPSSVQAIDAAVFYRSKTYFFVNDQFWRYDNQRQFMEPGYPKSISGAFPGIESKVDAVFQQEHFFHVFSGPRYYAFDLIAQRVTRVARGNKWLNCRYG
MMP12, sequence (P39900 106-470 limits assumed): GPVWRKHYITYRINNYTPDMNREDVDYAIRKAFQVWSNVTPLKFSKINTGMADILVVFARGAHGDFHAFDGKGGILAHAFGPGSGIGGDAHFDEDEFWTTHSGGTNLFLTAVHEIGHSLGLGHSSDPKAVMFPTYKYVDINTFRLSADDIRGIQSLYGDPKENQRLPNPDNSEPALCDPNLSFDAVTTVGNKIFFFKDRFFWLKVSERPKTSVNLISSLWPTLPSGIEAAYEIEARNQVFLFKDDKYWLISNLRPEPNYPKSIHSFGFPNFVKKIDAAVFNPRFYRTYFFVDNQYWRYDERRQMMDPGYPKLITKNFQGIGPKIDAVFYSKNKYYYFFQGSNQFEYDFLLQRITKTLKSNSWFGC
MMP9, sequence (P14780 107-707 limits assumed): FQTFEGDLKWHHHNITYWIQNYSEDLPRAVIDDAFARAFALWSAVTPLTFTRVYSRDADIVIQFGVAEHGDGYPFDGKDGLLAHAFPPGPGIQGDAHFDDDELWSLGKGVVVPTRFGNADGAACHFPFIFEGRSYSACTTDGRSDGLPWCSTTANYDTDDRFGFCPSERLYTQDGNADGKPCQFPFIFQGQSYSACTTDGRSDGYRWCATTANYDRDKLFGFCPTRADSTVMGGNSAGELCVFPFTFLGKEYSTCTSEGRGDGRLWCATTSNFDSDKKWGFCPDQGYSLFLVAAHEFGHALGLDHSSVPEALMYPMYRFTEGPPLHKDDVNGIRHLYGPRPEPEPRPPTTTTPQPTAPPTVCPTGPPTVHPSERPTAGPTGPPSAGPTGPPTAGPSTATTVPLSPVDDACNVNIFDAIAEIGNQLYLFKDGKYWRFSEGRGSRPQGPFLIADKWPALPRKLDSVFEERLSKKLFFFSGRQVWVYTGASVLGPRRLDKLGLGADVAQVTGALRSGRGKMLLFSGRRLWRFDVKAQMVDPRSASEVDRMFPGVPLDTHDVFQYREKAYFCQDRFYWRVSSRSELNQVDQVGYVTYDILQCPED

Binder	Protease Inhibition (% of WT) (MMP12)	Protease Inhibition (% of WT) (MMP3)	Protease Inhibition (% of WT) (MMP8)	Protease Inhibition (% of WT) (MMP2)	Protease Inhibition (% of WT) (ADAMTS5)	Protease Inhibition (% of WT) (MMP1)	Protease Inhibition (% of WT) (MMP9)	Protease Inhibition (% of WT) (ADAMTS4)	Protease Inhibition (% of WT) (MMP13)	Protease Inhibition (% of WT) (Elastase)	Protease Inhibition (% of WT) (chymotrypsin)	Protease Inhibition (% of WT) (bovine trypsin)	Protease Inhibition (% of WT) (Cathepsin G)
Variant A2M, bait region SEQ ID NO 126 (other) SVSGKPQYMVLVPSLLHTETTEKGCVLLSYLNETVTVSASLESVRGNRSLFTDLEAENDVLHCVAFAVPKSSSNEEVMFLTVQVKGPTQEFKKRTTVMVKNEDSLVFVQTDKSIYKPGQTVKFRVVSMDENFHPLNELIPLVYIQDPKGNRIAQWQSFQLEGGLKQFSFPLSSEPFQGSYKVVVQKKSGGRTEHPFTVEEFVLPKFEVQVTVPKIITILEEEMNVSVCGLYTYGKPVPGHVTVSICRKYSDASDCHGEDSQAFCEKFSGQLNSHGCFYQQVKTKVFQLKRKEYEMKLHTEAQIQEEGTVVELTGRQSSEITRTITKLSFVKVDSHFRQGIPFFGQVRLVDGKGVPIPNKVIFIRGNEANYYSNATTDEHGLVQFSINTTNVMGTSLTVRVNYKDRSPCYGYQWVSEEHEEAHHTAYLVFSPSKSFVHLEPMSHELPCGHTQTVQAHYILNGGTLLGLKKLSFYYLIMAKGGIVRTGTHGLLVKQEDMKGHFSISIPVKSDIAPVARLLIYAVLPTGDVIGDSAKYDVENCLANKVDLSFSPSQSLPASHAHLRVTAAPQSVCALRAVDQSVLLMKPDAELSASSVYNLLPEKDLTGFPGPLNDQDDEDCINRHNVYINGITYTPVSSTNEKDMYSFLEDMGLKAFTNSKIRKPKMCPQLEQYEMHGPEGEGEGEGIPENFFGVSEDLVVQISELEGRGSVEEPHTKLRKYFPETWIWDLVVVNSAGVAEVGVTVPDTITEWKAGAFCLSEDAGLGISSTASLRAFQPFFVELTMPYSVIRGEAFTLKATVLNYLPKCIRVSVQLEASPAFLAVPVEKEQAPHCICANGRQTVSWAVTPKSLGNVNFTVSAEALESQELCGTEVPSVPEHGRKDTVIKPLLVEPEGLEKETTFNSLLCPSGGEVSEELSLKLPPNVVEESARASVSVLGDILGSAMQNTQNLLQMPYGCGEQNMVLFAPNIYVLDYLNETQQLTPEIKSKAIGYLNTGYQRQLNYKHYDGSYSTFGERYGRNQGNTWLTAFVLKTFAQARAYIFIDEAHITQALIWLSQRQKDNGCFRSSGSLLNNAIKGGVEDEVTLSAYITIALLEIPLTVTHPVVRNALFCLESAWKTAQEGDHGSHVYTKALLAYAFALAGNQDKRKEVLKSLNEEAVKKDNSVHWERPQKPKAPVGHFYEPQAPSAEVEMTSYVLLAYLTAQPAPTSEDLTSATNIVKWITKQQNAQGGFSSTQDTVVALHALSKYGAATFTRTGKAAQVTIQSSGTFSSKFQVDNNNRLLLQQVSLPELPGEYSMKVTGEGCVYLQTSLKYNILPEKEEFPFALGVQTLPQTCDEPKAHTSFQISLSVSYTGSRSASNMAIVDVKMVSGFIPLKPTVKMLERSNHVSRTEVSSNHVLIYLDKVSNQTLSLFFTVLQDVPVRDLKPAIVKVYDYYETDEFAIAEYNAPCSKDLGNADYKDDDDKGASHHHHHH	132 % of WT	130 % of WT	163 % of WT	61 % of WT	480 % of WT	379 % of WT	500 % of WT	115 % of WT	117 % of WT	105 % of WT	50 % of WT	86 % of WT	311 % of WT
Variant A2M, bait region SEQ ID NO 127 (other) SVSGKPQYMVLVPSLLHTETTEKGCVLLSYLNETVTVSASLESVRGNRSLFTDLEAENDVLHCVAFAVPKSSSNEEVMFLTVQVKGPTQEFKKRTTVMVKNEDSLVFVQTDKSIYKPGQTVKFRVVSMDENFHPLNELIPLVYIQDPKGNRIAQWQSFQLEGGLKQFSFPLSSEPFQGSYKVVVQKKSGGRTEHPFTVEEFVLPKFEVQVTVPKIITILEEEMNVSVCGLYTYGKPVPGHVTVSICRKYSDASDCHGEDSQAFCEKFSGQLNSHGCFYQQVKTKVFQLKRKEYEMKLHTEAQIQEEGTVVELTGRQSSEITRTITKLSFVKVDSHFRQGIPFFGQVRLVDGKGVPIPNKVIFIRGNEANYYSNATTDEHGLVQFSINTTNVMGTSLTVRVNYKDRSPCYGYQWVSEEHEEAHHTAYLVFSPSKSFVHLEPMSHELPCGHTQTVQAHYILNGGTLLGLKKLSFYYLIMAKGGIVRTGTHGLLVKQEDMKGHFSISIPVKSDIAPVARLLIYAVLPTGDVIGDSAKYDVENCLANKVDLSFSPSQSLPASHAHLRVTAAPQSVCALRAVDQSVLLMKPDAELSASSVYNLLPEKDLTGFPGPLNDQDDEDCINRHNVYINGITYTPVSSTNEKDMYSFLEDMGLKAFTNSKIRKPKMCPQLEQYEMHGPIPENFFGVSELEGRGSEAIPMSIPTEGEGEGEGVEEPHTKLRKYFPETWIWDLVVVNSAGVAEVGVTVPDTITEWKAGAFCLSEDAGLGISSTASLRAFQPFFVELTMPYSVIRGEAFTLKATVLNYLPKCIRVSVQLEASPAFLAVPVEKEQAPHCICANGRQTVSWAVTPKSLGNVNFTVSAEALESQELCGTEVPSVPEHGRKDTVIKPLLVEPEGLEKETTFNSLLCPSGGEVSEELSLKLPPNVVEESARASVSVLGDILGSAMQNTQNLLQMPYGCGEQNMVLFAPNIYVLDYLNETQQLTPEIKSKAIGYLNTGYQRQLNYKHYDGSYSTFGERYGRNQGNTWLTAFVLKTFAQARAYIFIDEAHITQALIWLSQRQKDNGCFRSSGSLLNNAIKGGVEDEVTLSAYITIALLEIPLTVTHPVVRNALFCLESAWKTAQEGDHGSHVYTKALLAYAFALAGNQDKRKEVLKSLNEEAVKKDNSVHWERPQKPKAPVGHFYEPQAPSAEVEMTSYVLLAYLTAQPAPTSEDLTSATNIVKWITKQQNAQGGFSSTQDTVVALHALSKYGAATFTRTGKAAQVTIQSSGTFSSKFQVDNNNRLLLQQVSLPELPGEYSMKVTGEGCVYLQTSLKYNILPEKEEFPFALGVQTLPQTCDEPKAHTSFQISLSVSYTGSRSASNMAIVDVKMVSGFIPLKPTVKMLERSNHVSRTEVSSNHVLIYLDKVSNQTLSLFFTVLQDVPVRDLKPAIVKVYDYYETDEFAIAEYNAPCSKDLGNADYKDDDDKGASHHHHHH	170 % of WT	130 % of WT	210 % of WT	118 % of WT	205 % of WT	327 % of WT	500 % of WT	82 % of WT	131 % of WT	102 % of WT	25 % of WT	84 % of WT	324 % of WT
